Test results taken from article PMC2731897.

Target: T1, Mycobacterium tuberculosis GroEL1 (Rv3417c) without (His)6 tag (Mycobacterium tuberculosis), P9WPE9
T1 chain: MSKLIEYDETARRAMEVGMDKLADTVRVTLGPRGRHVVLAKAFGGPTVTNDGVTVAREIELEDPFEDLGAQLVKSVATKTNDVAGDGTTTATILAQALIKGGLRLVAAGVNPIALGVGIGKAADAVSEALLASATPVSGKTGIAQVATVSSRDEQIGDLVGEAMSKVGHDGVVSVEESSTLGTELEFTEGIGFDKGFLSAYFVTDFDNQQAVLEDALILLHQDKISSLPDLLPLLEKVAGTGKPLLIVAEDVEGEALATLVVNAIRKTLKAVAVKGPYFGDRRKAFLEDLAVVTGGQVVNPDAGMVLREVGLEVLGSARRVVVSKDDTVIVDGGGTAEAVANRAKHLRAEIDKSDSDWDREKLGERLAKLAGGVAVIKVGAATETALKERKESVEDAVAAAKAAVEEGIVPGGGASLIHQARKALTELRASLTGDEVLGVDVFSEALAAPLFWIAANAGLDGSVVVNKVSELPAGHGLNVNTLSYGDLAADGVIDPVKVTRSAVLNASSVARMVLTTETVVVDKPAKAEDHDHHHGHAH
Experiment: SEC
Conditions: remark: other sources report otherwise

B1: Mycobacterium tuberculosis GroEL1 (Rv3417c) without (His)6 tag, P9WPE9 1-539 (natural protein)
chain: MSKLIEYDETARRAMEVGMDKLADTVRVTLGPRGRHVVLAKAFGGPTVTNDGVTVAREIELEDPFEDLGAQLVKSVATKTNDVAGDGTTTATILAQALIKGGLRLVAAGVNPIALGVGIGKAADAVSEALLASATPVSGKTGIAQVATVSSRDEQIGDLVGEAMSKVGHDGVVSVEESSTLGTELEFTEGIGFDKGFLSAYFVTDFDNQQAVLEDALILLHQDKISSLPDLLPLLEKVAGTGKPLLIVAEDVEGEALATLVVNAIRKTLKAVAVKGPYFGDRRKAFLEDLAVVTGGQVVNPDAGMVLREVGLEVLGSARRVVVSKDDTVIVDGGGTAEAVANRAKHLRAEIDKSDSDWDREKLGERLAKLAGGVAVIKVGAATETALKERKESVEDAVAAAKAAVEEGIVPGGGASLIHQARKALTELRASLTGDEVLGVDVFSEALAAPLFWIAANAGLDGSVVVNKVSELPAGHGLNVNTLSYGDLAADGVIDPVKVTRSAVLNASSVARMVLTTETVVVDKPAKAEDHDHHHGHAH
stoichiometry N: 2
